Data taken from patent US9486491 (dated 2016).
Non-standard residues stand in square brackets, D forms with d. No end group written: not given here. Hyp = O=C(O)[C@@H]1C[C@@H](O)CN1

Biological target: DPP-4 (UniProt P27487)
Test: other, DPP-4 inhibition

DPP-4, sequence (P27487 29-766): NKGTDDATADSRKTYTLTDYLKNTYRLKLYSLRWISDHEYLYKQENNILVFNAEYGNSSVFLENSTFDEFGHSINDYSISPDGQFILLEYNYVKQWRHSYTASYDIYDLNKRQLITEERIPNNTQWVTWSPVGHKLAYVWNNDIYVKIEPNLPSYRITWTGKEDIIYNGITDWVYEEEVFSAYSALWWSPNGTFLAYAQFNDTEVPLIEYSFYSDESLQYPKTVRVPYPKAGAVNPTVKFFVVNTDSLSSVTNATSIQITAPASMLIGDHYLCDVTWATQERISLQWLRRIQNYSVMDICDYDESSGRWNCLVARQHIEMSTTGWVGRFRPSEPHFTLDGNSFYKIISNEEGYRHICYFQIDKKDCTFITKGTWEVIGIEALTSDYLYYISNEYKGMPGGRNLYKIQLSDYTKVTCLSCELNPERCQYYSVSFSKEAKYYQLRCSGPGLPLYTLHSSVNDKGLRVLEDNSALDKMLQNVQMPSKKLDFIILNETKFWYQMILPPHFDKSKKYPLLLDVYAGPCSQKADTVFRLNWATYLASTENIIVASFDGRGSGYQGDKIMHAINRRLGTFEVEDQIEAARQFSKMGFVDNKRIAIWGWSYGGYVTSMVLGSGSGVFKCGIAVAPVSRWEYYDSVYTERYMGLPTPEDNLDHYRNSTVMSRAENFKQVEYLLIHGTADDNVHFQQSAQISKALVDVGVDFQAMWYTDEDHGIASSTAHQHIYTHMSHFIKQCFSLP

IC50	Binder
390 µg/mL	L[Hyp]GPA [LeuHypGlyProAla]
142 µg/mL	GPS [GlyProSer]
8 µg/mL	APG [AlaProGly]
14 µg/mL	LPG [LeuProGly]
150 µg/mL	Ile-[Hyp]-Gly [IleHypGly]
2450 µg/mL	Ala-[Hyp]-Gly [AlaHypGly]
100 µg/mL	GPV [GlyProVal]
71 µg/mL	GPA [GlyProAla]
39 µg/mL	Leu-[Hyp]-Gly [LeuHypGly]
5 µg/mL	GPIGPV [GlyProIleGlyProVal]
93 µg/mL	GPQ [GlyProGln]
